Results taken from the nanobody polyreactivity screen of Harvey et al. (2022).

experiment: yeast display, Sf9 membrane polyspecificity reagent, FACS + sequencing; frameworks hold sequencing errors
Procedure, shortened: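 In a synthetic yeast display library (Saccharomyces cerevisiae BJ5465), nanobody expression was induced with galactose for 36–48 hours. FACS gates were set low and high (top ~1%) using anti-HA fluorescence for expression and streptavidin fluorescence for binding of the Sf9 membrane reagent. Each polyreactivity label is drawn from the gate of origin.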

Sequence	polyreactivity (PSR sort gate)
QVQLVESGGGLVQAGGSLRLSCAASGYTFTGYALGWYRQAPGKERELVAAITSIGGSTYYADSVKGRFTISRDNAKNTVYLQMNSLKPEDTAVYYCAAEGDYVYDMDYWGQGTQVTVSS	low polyreactivity
QVQLVESGGGLVQAGGSLRLSCAASGYTFTHYAMGWYRQAPGKERELVAGITWSGGSTYYADSVKGRLTISRDNAKNTVYLQMNSLKPEDTSVYYCAAKYYWYYSYSGIPLFDYWGQGTQVTVSS	low polyreactivity
QVQLVESGGGLVQAGGSLRLSCAASGYTFTLYAMGWYRQAPGKEREFVAAISIGGDSTYYADSVKGRFTISRDNAKNTVYLQMNSLKPEDTAVYYCAADTYQRWILLIGELQVETSYDYWGQGTQVTVSS	low polyreactivity
QVQLVESGGGLVQAGGSLRLSCAASGYTFVIYAMGWYRQAPGKERELVAAITTIGGRTYYADSVKGRFTISRDNAKNTVYLQMNSLKPEDTAVYYCAADIRSYRLYDGGYWGQGTQVTVSS	low polyreactivity
QVQLVESGGGLVQAGGSLRLSCAASGYTFVVYAMGWYRQAPGKERELVAGITRGSSTYYADSVKGRFTISRDNAKNTVYLQMNSLKPEDTAVYYCARGYTWFYAVWPEYDYWGQGTQVTVSS	high polyreactivity
QVQLVESGGGLVQAGGSLRLSCAASGYTFVYYAMGWYRQAPGKERELVAAITSGGRTNYADSVKGRFTISRDNAKNTVYLQMNSLKPEDTAVYYCARLDYRSVRYGLRGQGTQVTVSS	low polyreactivity
QVQLVESGGGLVQAGGSLRLSCAASGYTFWDNAMGWYRQAPGKERELVAAITIRSGRTYYADSVKGRFTISRDNAKNTVYLQMNSLKPEDTAVYYCNAQIYTYRTGRGYSRMDYWGKGTQVTVSS	high polyreactivity
QVQLVESGGGLVQAGGSLRLSCAASGYTFWDYALGCYRQAPGKERAFVAGISFSDGGTYYADSVKGRFTISRDNAKNTVYLQMNSLKPEDTAVYYCAATYPYSWVYSGYYYWGQGTQVTVSS	low polyreactivity
QVQLVESGGGLVQAGGSLRLSCAASGYTFWLYAMGWYRQAPGKERELVATISRRAGTTYYADSVKGRFTISRDNAKNTVYLQMNSLKPEDTAVYYCNTDGYPRLYIYDYWGQGTQVTVSS	low polyreactivity
QVQLVESGGGLVQAGGSLRLSCAASGYTFWWYAMGWYRQAPGKEREFVAAIRFSGGTGTYYADSVKGRFTISRDNAKNTVYLQMNSLKPEDTAVYYCAADIAFRQWQVGDFDYWGQGTQVTVSS	low polyreactivity
QVQLVESGGGLVQAGGSLRLSCAASGYTFWWYAMGWYRQAPGKEREFVAAIRFSGGTRTYYADSVKGRFTISRENAKYTVFLQMNSLKPDDTAVYYCAADIAFRQWQVGDFDYWGQGTQVTVSS	low polyreactivity
QVQLVESGGGLVQAGGSLRLSCAASGYTFWYYTMGWYRQATGKERELVATISSNGRRTYYADSVKGRFTISRDNAKNTVYLQMNSLYPEDTAVYYCAAVLYRSWVYTTHDYWGHGTQVTVSS	high polyreactivity
QVQLVESGGGLVQAGGSLRLSCAASGYTFYANAMGWYRQAPGKEREFVASITWSGGSTYYADSVKGRFTISRDNAKNTVYLQMNSLKTEDTAVYYCAAESWFKYDYWGQGTQVTVSS	low polyreactivity
QVQLVESGGGLVQAGGSLRLSCAASGYTFYAYAMGWYRQAPGKERELVAAISGSGGNTRYADSVKGRFTISRDNAKNTVYLQMNSLKPEDTAVYYCAAVGWAYNSRYDYWGQGTQVTVSS	high polyreactivity
QVQLVESGGGLVQAGGSLRLSCAASGYTFYGYAMGWYRQAPGKERELVAAISWSGTNTNYADSVKGRFTISRDNAKNTVYLQMNSLKPEDTAVYYCAAGYYYRGFHTEDYWGQGTQVTVSS	high polyreactivity
QVQLVESGGGLVQAGGSLRLSCAASGYTFYPYAMGWYRQAPGKERELVAAITTSGGSTYYADSVKGRFTISRDNAKNTVYLQMNSLKPEDTAVYYCARDSLQVFYPYASDDYWGQGTQVTVSS	low polyreactivity
QVQLVESGGGLVQAGGSLRLSCAASGYTFYRYAMGWYRQAPGKERELVAGIDRSGTRTYYADSVKGRFTISRDNAKNTVYLQMNSLKPEDTAVYYCNAVAYYVSKYDYWGQGTQVTVSS	high polyreactivity
QVQLVESGGGLVQAGGSLRLSCAASGYTFYRYAMGWYRQAPGKERELVAGISRDGGSTYYADSVKGRFTISRDNAKNTVYLQMNSLKPEDTAVYYCAADKTRYRLGRDYWGQGTQVTVSS	low polyreactivity
QVQLVESGGGLVQAGGSLRLSCAASGYTFYRYTMGWYRQAPGKEREVVAAINSGGSTNYADSLKGRFTISRDNAKNTVYLQMNSLKPEDTAVYYCARRYQTWPRWYDYWGQGTQVTVSS	high polyreactivity
QVQLVESGGGLVQAGGSLRLSCAASGYTFYVYTMGWYRQAPGKERELVAAISGSGTSTYYADSVKGRFTISRDNAKNTVYLQMNSLKPEDTAVYYCAAEDYSSDVYSYDYWGQGTQVTVSS	low polyreactivity
QVQLVESGGGLVQAGGSLRLSCAASGYTFYWNVMGWYRQAPGKERELVAVIDWSGGSTHYADSVKGRFTISRDNAKNTVYLQMNSLKPEDTAVYYCAAVDIRLEWDYWFQPTYDYWGQGTQVTVSS	low polyreactivity
QVQLVESGGGLVQAGGSLRLSCAASGYTFYYNAMGWYIQAPGKERELVARISRSGGSTYADSVKGRFTISRDNAKNTVYLQMNSLKPEDTAVYYCNADAYGTPEFTSYAVRYDYWGQGTQVTVSS	low polyreactivity

Sequence	polyreactivity (PSR sort gate)
QVQLVESGGGLVQAGGSLRLSCAASGYTIIQYAMGWYRQAPGKERELVAGMTWSGGSKYADSVKGRFTISRDNAKNTVYLQMNSLNPEDTAVYYCAAVPYSYTYVYLRHYDYWGQGTQVSVSS	low polyreactivity
QVQLVESGGGLVQAGGSLRLSCAASGYTIRYYAMGSYRQAPGKERELVADISYSGGRTYYADSVKGRITISRDNAKNTVDLLMNSLKPEDSAVYYSNARGGRRAYNYGYWGQGTQVTVSS	high polyreactivity
QVQLVESGGGLVQAGGSLRLSCAASGYTIWHYAMGWYRQAPGKEREFVATISSGGSTYYADSVKGRFTISRDNAKNTVYLQMNSLKPEDTAVYYCAVDIWGGEGYDSWGQGTQVTVSS	low polyreactivity
QVQLVESGGGLVQAGGSLRLSCAASGYTIYVNAMGRYRQAPAKQRQLVASNRRDSTYYADSVKGRFTISRDNAKNTVYLQMNSLKPEDSAVYYCAVDWYPWLYDGRTYEYWGQGTQVTVSS	low polyreactivity
QVQLVESGGGLVQAGGSLRLSCAASGYTLNIYGMGWYRQATGKERELVAAISRGGSTNYADSVKGRFTISRDNAKNTVYLQMNSLKPEDTAVYYCAKVYNYRSVRYYYWGQGTQVTVSS	high polyreactivity
QVQLVESGGGLVQAGGSLRLSCAASGYTLRIYAMGWYRQAPGKERELVAAISRSGGRTFYADSVKGRFTISRDNAKNTVYLQMISLTPEDTAVFYCAAVSAYYYRRTYEYWGQGTQVTVSS	high polyreactivity
QVQLVESGGGLVQAGGSLRLSCAASGYTLYLNAMGWYRQAPGKERELFARISGGGSTNYADSVKGRFTISRDNAKNTVYLQMNSLKPEDTAVYYCAATIFAYGYRSFKLDYWGQGTQVTVSS	low polyreactivity
QVQLVESGGGLVQAGGSLRLSCAASISSSNAMGWYRQAPGKERELVAAIRWSGTSTYYADSVKGRFTISRDNANNTVYLQMNSLKPEETAVYYCAARYVRVGYDYWGQGTQVTVSS	high polyreactivity
QVQLVESGGGLVQAGGSLRLSCAASMGWYRQAPGKERELVAITRTTRTYYADSVKGRFTISRDNAKNTVYLQMNSLKPEDTAVYYCAAPNGPSPYWYNYWGQGTQVTVSS	low polyreactivity
QVQLVESGGGLVQAGGSLRLSCAASRFIFGAYTMGWYRQAPGKERELVAAISWSGDSTYYADSVKGRFTISRDNAKNTVYLQMNSLKPEDTAVYYCAAVWYWSGFDYWGQGTQVTVSS	high polyreactivity
QVQLVESGGGLVQAGGSLRLSCAASRFIFSFYVMGWYRQAPAKETELVAAISTSGASTYYADSVKGRFTITRDNAKKTVYLQMNSLKPEDTAVYYCNVGYRYGGYNYWGQGTQVTVSW	high polyreactivity
QVQLVESGGGLVQAGGSLRLSCAASRFIFSSYVMGRYRQAPGKERELVAASRSGGSTNYADSVKGRFTISRDNAKNTVYLQMNSLKPEDTAVYYCAARGRLGQGYYYWGQGTLVTVSS	low polyreactivity
QVQLVESGGGLVQAGGSLRLSCAASRFIFWPYAMGWYRPAPGKERELVAAITTGGSTNYADSVKGRFTISRDNAKNTVYFQMNSLKPEDTAVYYCAKGYYFGYYEFVYWGQGTQVTVSS	high polyreactivity
QVQLVESGGGLVQAGGSLRLSCAASRFTFSGYAMGWYRQAPGKERELVATISSSGSTYADSVKGRFTISRDNAKNTVYLQMNSLKPEDTAVYYCAKRVPFFDYWGQGTQVTVSS	low polyreactivity
QVQLVESGGGLVQAGGSLRLSCAASRFTFVHYAMGWYRQAPGKERELVAAISRSGGSTYCADSVKGRFTISRDNAKNTVYLQMNSLKPEDTAVYYCAASRGSYEVVYWGQGTQVTVSS	high polyreactivity
QVQLVESGGGLVQAGGSLRLSCAASRFYTMGWYIPAPGKERELVAAISWSGGDTYYADSVKGRYTISRDNAKNTVYLQMNSLKQEDTAVYYCPKKTIGSYVHEPYYYWGQGNQVTVSS	low polyreactivity
QVQLVESGGGLVQAGGSLRLSCAASRIIFWFYAMGWYRQAPGKERELVAAISGDGDSTYYADSVKGRFTISRDNAKNTVYLQMNSLIPEDTAVYYCAAEWDPVFATDEDDYWGQGTQVTVSS	low polyreactivity
QVQLVESGGGLVQAGGSLRLSCAASRRIFDVNSMGWYRQAPGKERELVAAISSGGNTKYADSVKGRFTISRDNAKNSVYLQMNSLKPEDTAVYYCIADGKAAGDYDYWGQGTQVTVSS	low polyreactivity
QVQLVESGGGLVQAGGSLRLSCAASRRILRVYAMGWYRQAPGKERELVASISSGGSTNYADSVKGRFTISRDNAKNTVYFQMKSLKPEDTAVYYCNRRWVHTYDYWGQGTQVTVSS	high polyreactivity
QVQLVESGGGLVQAGGSLRLSCAASRSIFRGYAMGWYRQAPVKETELVAAITQRAGSTYYADSVKGRFTISRDNAKNTVYLQMISLKPEDTAVYYCAADFYYAYYWGQGTQVTVSS	low polyreactivity
QVQLVESGGGLVQAGGSLRLSCAASRSTSPAYAMGWYRQAPGKERELVAVITGSGASTYYADSVKGRFTISRDNAKNTVYLQMNSLKPEDTAVYYCAADVGFGVVFYDYWGQGTQVTVSS	low polyreactivity
